Data taken from article doi:10.64898/2025.12.02.691841.

Target: His5-MttP (MM_1691), DME family transporter of Methanosarcina mazei (Methanosarcina mazei)
Assay: SEC

stoichiometry N	Substance
1	MttS (sORF05), small protein of Methanosarcina mazei (natural protein)
1	MttQ (MM_1692), small protein of Methanosarcina mazei (natural protein)
